In the supplement of paper PMC7125110:
± gives the standard error. For some of these results: Fewer inactive variants are shown than the library holds.

B1: glmS ribozyme (parent)
chain: AUAAAAGCGCCAGAACUACAGAAAUGUAGUUGACGAGGAGGAGGUUUAUCGAAUUUUCGGCGGAUGCCUCCAAA

What was measured:
Settings in all cases: with glucosamine-6-phosphate
glucosamine-6-phosphate [1] = variants of: B1; experiment: kcat; higher = faster cleavage; RNA array
Procedure, shortened: (§1)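 Glucosamine-6-phosphate in HEPES/KCl/Mg(OAc)2 buffer, at 40 μM to 10 mM, was flowed over barcoded ribozyme variants transcribed in situ by E. coli RNA polymerase on sequenced MiSeq chips. Tracking was through a hybridised Cy3 probe at 37 °C. kobs, kcat and KM came from exponential decay fits and weighted Michaelis–Menten fits of normalised per-tile medians.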

glucosamine-6-phosphate [2] = variants of: B1; experiment: self-cleavage kobs at 40 uM GlcN6P; higher = faster cleavage; RNA array
Procedure, shortened: as §1

glucosamine-6-phosphate [3] = variants of: B1; experiment: self-cleavage kobs at 640 uM GlcN6P; higher = faster cleavage; RNA array
Procedure, shortened: as §1

glucosamine-6-phosphate [4] = variants of: B1; experiment: KM; higher = weaker cofactor use; RNA array
Procedure, shortened: as §1

glucosamine-6-phosphate [5] = variants of: B1; experiment: self-cleavage kobs at 160 uM GlcN6P; higher = faster cleavage; RNA array
Procedure, shortened: as §1

glucosamine-6-phosphate [6] = variants of: B1; experiment: self-cleavage kobs at 10000 uM GlcN6P; higher = faster cleavage; RNA array
Procedure, shortened: as §1

glucosamine-6-phosphate [7] = variants of: B1; experiment: self-cleavage kobs at 2500 uM GlcN6P; higher = faster cleavage; RNA array
Procedure, shortened: as §1

Variant | kcat (glucosamine-6-phosphate [1]) [s⁻¹] | self-cleavage kobs at 40 uM GlcN6P (glucosamine-6-phosphate [2]) [s⁻¹] | self-cleavage kobs at 640 uM GlcN6P (glucosamine-6-phosphate [3]) [s⁻¹] | KM (glucosamine-6-phosphate [4]) [µM] | self-cleavage kobs at 160 uM GlcN6P (glucosamine-6-phosphate [5]) [s⁻¹] | self-cleavage kobs at 10000 uM GlcN6P (glucosamine-6-phosphate [6]) [s⁻¹] | self-cleavage kobs at 2500 uM GlcN6P (glucosamine-6-phosphate [7]) [s⁻¹]
U31C G59U | < 1e-05 | < 1e-05 | < 1e-05 | – | – | – | –
U30A A42U | 1.63e-05 ± 1.2e-07 | – | – | 588 ± 46 | < 1e-05 | 1.54e-05 ± 7.6e-06 | –
U30G G66C | 0.000132 ± 1.5e-05 | – | – | 1620 ± 600 | – | 0.00011 ± 1.6e-05 | 9.1e-05 ± 1.7e-05
U30G G66U | 0.000295 ± 2e-05 | – | 8.02e-05 ± 1.2e-05 | 1760 ± 290 | – | 0.000256 ± 2.4e-05 | 0.000147 ± 3.5e-05
U30G A52U | 6.83e-05 ± 9.4e-06 | – | – | – | – | 5.6e-05 ± 1e-05 | 4.14e-05 ± 1.5e-05
U30G A52G | 0.000498 ± 6.7e-05 | – | 9.63e-05 ± 1.4e-05 | 2430 ± 620 | 4.03e-05 ± 2e-05 | 0.000388 ± 4.4e-05 | 0.00033 ± 5.9e-05
U31A A39C | 0.00192 ± 0.00067 | 5.43e-05 ± 7.8e-06 | 0.000525 ± 4.9e-05 | 2120 ± 1000 | 0.000105 ± 1.4e-05 | 0.00166 ± 0.0003 | 0.000973 ± 0.00011
U31A U65G | 0.00228 ± 0.00054 | 3.37e-05 ± 1.5e-05 | 0.000521 ± 8.8e-05 | 2390 ± 1000 | 0.000211 ± 6.2e-05 | 0.00205 ± 0.00027 | 0.000854 ± 0.00019
U31A U65A | 0.00266 ± 0.00015 | 2.41e-05 ± 1.1e-05 | 0.000399 ± 5.4e-05 | 3820 ± 350 | 9.46e-05 ± 3.5e-05 | 0.00191 ± 0.00022 | 0.00107 ± 0.00022
U30C C68G | 4.61e-05 ± 1.8e-05 | 3.15e-05 ± 1.2e-05 | 8.37e-05 ± 1.7e-05 | – | 5.26e-05 ± 1.7e-05 | 2.14e-05 ± 9.4e-06 | 8.75e-05 ± 1.7e-05
U30G A39C | 0.00157 ± 0.00013 | 3.28e-05 ± 5.7e-06 | 0.000396 ± 3.6e-05 | 2010 ± 270 | 0.000114 ± 1.6e-05 | 0.00139 ± 0.00011 | 0.000787 ± 7.3e-05
U31C G38U | < 1e-05 | < 1e-05 | – | – | – | < 1e-05 | –
U31G G59A | 0.000131 ± 8.6e-06 | < 1e-05 | – | – | – | 4.18e-05 ± 1.3e-05 | –
U31A C71A | 0.00261 ± 0.001 | 8.13e-05 ± 2.1e-05 | 0.00049 ± 0.00015 | – | 0.000449 ± 0.00013 | 0.00252 ± 0.00057 | 0.00162 ± 0.00035
U31C U47A U56C | 0.00113 ± 0.00024 | – | 0.000111 ± 2.5e-05 | 5360 ± 1700 | – | 0.000707 ± 0.00012 | 0.000487 ± 0.00011
U30A C67A | 0.00161 ± 0.00066 | 4.92e-05 ± 9.2e-06 | 0.000231 ± 4.7e-05 | – | 0.00014 ± 3.7e-05 | 0.00131 ± 0.0002 | 0.00102 ± 0.00018

Variant | kcat (glucosamine-6-phosphate [1]) [s⁻¹] | self-cleavage kobs at 40 uM GlcN6P (glucosamine-6-phosphate [2]) [s⁻¹] | self-cleavage kobs at 640 uM GlcN6P (glucosamine-6-phosphate [3]) [s⁻¹] | KM (glucosamine-6-phosphate [4]) [µM] | self-cleavage kobs at 160 uM GlcN6P (glucosamine-6-phosphate [5]) [s⁻¹] | self-cleavage kobs at 10000 uM GlcN6P (glucosamine-6-phosphate [6]) [s⁻¹] | self-cleavage kobs at 2500 uM GlcN6P (glucosamine-6-phosphate [7]) [s⁻¹]
U31A G59A | 0.000128 ± 1.5e-05 | – | 2.94e-05 ± 1.4e-05 | 2710 ± 740 | – | 0.000104 ± 2.3e-05 | 5.49e-05 ± 1.7e-05
U30C G66A | 0.000173 ± 3.1e-05 | – | 3.92e-05 ± 1e-05 | 1860 ± 840 | – | 0.00014 ± 1.9e-05 | 0.000153 ± 3.4e-05
U30C G66C | < 1e-05 | – | < 1e-05 | 347 ± 120 | – | – | < 1e-05
U30G G60A | 1.25e-05 ± 1.8e-06 | < 1e-05 | – | – | < 1e-05 | – | –
U30G C68U | 0.00118 ± 0.00027 | – | 0.000154 ± 3.1e-05 | 3820 ± 1500 | – | 0.000827 ± 0.00013 | 0.000642 ± 0.00015
U31G G43A | 1.25e-05 ± 3.3e-06 | – | – | – | – | – | –
U30C G62U | < 1e-05 | – | – | – | < 1e-05 | < 1e-05 | –
U30C G62A | < 1e-05 | – | < 1e-05 | – | – | – | –
U30A A64G | 0.00654 ± 0.00069 | 0.000149 ± 2.6e-05 | 0.00193 ± 0.00045 | 1670 ± 240 | 0.000656 ± 0.00022 | 0.00607 ± 0.0014 | 0.0035 ± 0.0008
U30C C58G | 2e-05 ± 1.6e-06 | – | < 1e-05 | – | – | – | –
U30C C58U | 3.26e-05 ± 1.4e-05 | – | < 1e-05 | – | – | – | –
U31A C67U | 0.00291 ± 0.0011 | 0.000116 ± 1.4e-05 | 0.00143 ± 0.00019 | – | 0.000324 ± 8.8e-05 | 0.00427 ± 0.00063 | 0.00135 ± 0.00029
U30G U31A | 0.0147 ± 0.001 | 0.000631 ± 0.0002 | – | 914 ± 110 | – | 0.0137 ± 0.0031 | –
U30A A53U | 0.00525 ± 0.00098 | 0.000128 ± 1.8e-05 | 0.00135 ± 0.00021 | 1860 ± 480 | 0.00035 ± 7.7e-05 | 0.00523 ± 0.001 | 0.00272 ± 0.00042
U30A A53G | 0.00645 ± 0.0027 | 0.000256 ± 5.1e-05 | 0.00196 ± 0.00055 | – | 0.000553 ± 0.00023 | 0.00929 ± 0.002 | 0.00301 ± 0.00096
U31A A48C | 0.000149 ± 3.3e-05 | – | 4.87e-05 ± 1.3e-05 | – | – | 0.00014 ± 2.4e-05 | 7.42e-05 ± 1.5e-05
